As usually defined, the Kd is the concentration at which binding is half-saturated. One may read the koff as a measure of how fast the partners let go of each other. The low end stands for slow dissociation, the high end for fast dissociation. What is called kon is the rate constant with which the complex forms. Read a high kon as fast association.

Here are results for ten molecules from US20240287178A1 (YALE UNIVERSITY, published 2024).

Test [1] concerns the target T1, mouse Unc5B (mouse, UniProt Q8K1S3 27-945).
T1 construct: whole, on cells; Endogenous receptor, on cells or in brain lysates; also called Unc5B (Bend.3 cells, mouse brain)
Nature of the test: co-immunoprecipitation with the anti-Unc5B antibodies from Bend.3 cells, western blot for Claudin5.

For test [2], the target named is T2, Unc5B (analyte or ligand of the Biacore analysis; species and construct not stated).
T2 construct: The phage selection used a recombinant rat Unc5B-ECD Fc fusion (R&D Systems)
Briefly: Biacore (SPR); format not stated. On the technique in general: Surface plasmon resonance follows binding to a sensor surface in real time, without labels.

Another test has as its target T3, Rat UNC5B (rat, UniProt O08722).
T3 construct: a recombinant rat Unc5B-ECD Fc fusion protein (R&D systems) only for the phage selection; Kept apart from m11, which is the GFP fusion expressed in PAECs; also called rat Unc5B (Biacore analysis)
Briefly: Biacore.

The next test concerns the target T4, human Unc5B (human, UniProt Q8IZJ1 27-945).
T4 construct: whole, on cells; also called Unc5B (HUVEC)
Briefly: Biacore.

Test [3] concerns the target T5, rat Unc5B coupled to GFP, in transfected porcine aortic endothelial cells (PAECs) (rat, UniProt O08722 27-945).
T5 construct: whole, on cells; also called rat Unc5B-GFP; not shown: GFP
Briefly: immunoprecipitation from PAECs transfected with rat Unc5B-GFP, 1 h after antibody treatment. From the text:
Light (LC) and Heavy (HC) chains were sequenced for each antibody (FIGS. 1A-1D and 2A-2D).

Test [4] deals with T1, mouse Unc5B. Nature of the test: immunoprecipitation from Bend.3 cells after antibody treatment, western blot for Unc5B.

B1: mouse Claudin5 (other, UniProt O54942 1-218, looked up)
chain: MGSAALEILGLVLCLVGWVGLILACGLPMWQVTAFLDHNIVTAQTTWKGLWMSCVVQSTGHMQCKVYESVLALSAEVQAARALTVGAVLLALVALFVTLTGAQCTTCVAPGPVKARVALTGGALYAVCGLLALVPLCWFANIVVREFYDPTVPVSQKYELGAALYIGWAASALLMCGGGLVCCGAWVCTGRPEFSFPVKYSAPRRPTANGDYDKKNYV
Take B1: the binding result with mouse Unc5B [1] is reported as “binds”.

B2: antibody 1097 (antibody, V domains shown)
VH: EVQLVESGGGLVQPGGSLRLSCAASGFNLYYYSMHWVRQAPGKGLEWVASIYSYSSYTSYADSVKGRFTISADTSKNTAYLQMNSLRAEDTAVYYCARSYAMDYWGQGTLVTVSS
VL: DIQMTQSPSSLSASVGDRVTITCRASQSVSSAVAWYQQKPGKAPKLLIYSASSLYSGVPSRFSGSRSGTDFTLTISSLQPEDFATYYCQQSYGPFTFGQGTKVEIKR
For B2, the Kd in test [2] was determined as 0.7 nM. In the test with Rat UNC5B, this molecule registered a Kd of 0.712 nM, a koff of 0.00104 s⁻¹ and a kon of 1.46e+06 M⁻¹ s⁻¹. In the test with human Unc5B, the Kd worked out at 0.692 nM, the dissociation rate constant (koff) worked out at 0.000993 s⁻¹ and the kon stood at 1.44e+06 M⁻¹ s⁻¹.

B3: anti-Unc5B antibody 1103 (antibody, V domains shown)
VH: EVQLVESGGGLVQPGGSLRLSCAASGFNISYYSIHWVRQAPGKGLEWVASIYSSSGYTSYADSVKGRFTISADTSKNTAYLQMNSLRAEDTAVYYCARGYGLDYWGQGTLVTVSS
VL: DIQMTQSPSSLSASVGDRVTITCRASQSVSSAVAWYQQKPGKAPKLLIYSASSLYSGVPSRFSGSRSGTDFTLTISSLQPEDFATYYCQQHYSYPITFGQGTKVEIKR
For the molecule B3, in test [2], the Kd stood at 1.3 nM. In the test with Rat UNC5B, this molecule showed a Kd of 1.34 nM, a koff of 0.000501 s⁻¹ and a kon of 375000 M⁻¹ s⁻¹. In the test with human Unc5B, this molecule registered a Kd of 1.29 nM, a koff of 0.000482 s⁻¹ and a kon of 375000 M⁻¹ s⁻¹.

B4: antibody 1101 (antibody, V domains shown)
VH: EVQLVESGGGLVQPGGSLRLSCAASGFNIYYSSMHWVRQAPGKGLEWVAYISSSYGYTYYADSVKGRFTISADTSKNTAYLQMNSLRAEDTAVYYCARGYYAGYFGIDYWGQGTLVTVSS
VL: DIQMTQSPSSLSASVGDRVTITCRASQSVSSAVAWYQQKPGKAPKLLIYSASSLYSGVPSRFSGSRSGTDFTLTISSLQPEDFATYYCQQAGWPITFGQGTKVEIKR
Consider B4, for which the binding result in test [3] is listed as “binds”.

B5: antibody 1100 (antibody, V domains shown)
VH: EVQLVESGGGLVQPGGSLRLSCAASGFNLYYSSIHWVRQAPGKGLEWVASIYSYSSYTSYADSVKGRFTISADTSKNTAYLQMNSLRAEDTAVYYCARGYAMDYWGQGTLVTVSS
VL: DIQMTQSPSSLSASVGDRVTITCRASQSVSSAVAWYQQKPGKAPKLLIYSASSLYSGVPSRFSGSRSGTDFTLTISSLQPEDFATYYCQQHYGLITFGQGTKVEIKR
On to B5, for which the binding result (in test [3]; with mouse Unc5B [4]) was “binds” throughout.

B6: antibody 1095 (antibody, human IgG2, kappa, V domains shown)
VH: EVQLVESGGGLVQPGGSLRLSCAASGFNISYSSIHWVRQAPGKGLEWVAYIYPYYGYTYYADSVKGRFTISADTSKNTAYLQMNSLRAEDTAVYYCARGYGIDYWGQGTLVTVSS
VL: DIQMTQSPSSLSASVGDRVTITCRASQSVSSAVAWYQQKPGKAPKLLIYSASSLYSGVPSRFSGSRSGTDFTLTISSLQPEDFATYYCQQHYSLFTFGQGTKVEIKR
For B6, the binding result (in test [3]; in the test with mouse Unc5B [4]) was “binds” each time.

B7: antibody 1098 (antibody, V domains shown)
VH: EVQLVESGGGLVQPGGSLRLSCAASGFNIYYSYMHWVRQAPGKGLEWVASIYSYSSYTSYADSVKGRFTISADTSKNTAYLQMNSLRAEDTAVYYCARHYAMDYWGQGTLVTVSS
VL: DIQMTQSPSSLSASVGDRVTITCRASQSVSSAVAWYQQKPGKAPKLLIYSASSLYSGVPSRFSGSRSGTDFTLTISSLQPEDFATYYCQQSYSPFTFGQGTKVEIKR
Take B7: the binding result (in test [3]; with mouse Unc5B [4]) was “binds” in each case.

B8: antibody 1096 (antibody, V domains shown)
VH: EVQLVESGGGLVQPGGSLRLSCAASGFNLYYSSIHWVRQAPGKGLEWVASIYSYSSYTSYADSVKGRFTISADTSKNTAYLQMNSLRAEDTAVYYCARSYAMDYWGQGTLVTVSS
VL: DIQMTQSPSSLSASVGDRVTITCRASQSVSSAVAWYQQKPGKAPKLLIYSASSLYSGVPSRFSGSRSGTDFTLTISSLQPEDFATYYCQQGFAPFTFGQGTKVEIKR
Consider B8, for which the binding result (in test [3]; with mouse Unc5B [4]) was “binds” throughout.

B9: antibody 1102 (antibody, V domains shown)
VH: EVQLVESGGGLVQPGGSLRLSCAASGFNIYYSSMHWVRQAPGKGLEWVASIYSYSSYTSYADSVKGRFTISADTSKNTAYLQMNSLRAEDTAVYYCARSFAMDYWGQGTLVTVSS
VL: DIQMTQSPSSLSASVGDRVTITCRASQSVSSAVAWYQQKPGKAPKLLIYSASSLYSGVPSRFSGSRSGTDFTLTISSLQPEDFATYYCQQAYSPFTFGQGTKVEIKR
Consider B9, for which the binding result in test [3] is “binds”.

B10: antibody 1099 (antibody, V domains shown)
VH: EVQLVESGGGLVQPGGSLRLSCAASGFNLYYYSIHWVRQAPGKGLEWVASIYPYSSYTSYADSVKGRFTISADTSKNTAYLQMNSLRAEDTAVYYCARGYAFNYWGQGTLVTVSS
VL: DIQMTQSPSSLSASVGDRVTITCRASQSVSSAVAWYQQKPGKAPKLLIYSASSLYSGVPSRFSGSRSGTDFTLTISSLQPEDFATYYCQQHYALFTFGQGTKVEIKR
In the case of B10, the binding result in test [3] was “binds”.
